Assay results as given in the DeepSol protein solubility set.

Assay: soluble on expression in E. coli; label from the status in PepcDB or PDB records

| Sequence | soluble on expression in E. coli |
| --- | --- |
| KSDSENIKDVKLQLNYAYEIIPVDYTNCNIDYLTTHDFYIDISSYKKKNFSVDSEVESYITTKFTKNQKVNIFGLPYIFTRYDVYYIYGGVTPSVNSNSENSKIVGNLLIDGVQQKTLINPIKIDKPIFTIQEFDFKIRQYLMQTYKIYDPNSPYIKGQLEIAINGNKHESFNLYDATSSSTRSDIFKKYKDNKTINMKDFSHFDIYLWTK | soluble |
| MVNLQEYQSKKLMSDNGVKVQRFFVADTANEALEAAKRLNAKEIVLKAQILAGGRGKGVFSSGLKGGVHLTKDPEVVGQLAKQMIGYNLATKQTPKEGVKVNKVMVAEALDISRETYLAILMDRSCNGPVLVGSPQGGVDIEEVAASNPELIFKEQIDIIEGIKDSQAQRMAENLGFLGPLQNQAADQIKKLYNLFLKIDATQVEVNPFGETPEGQVVCFDAKINFDDNAEFRQKDIFAMDDKSENEPIENEAAKYDLKYIGLDGNIACFVNGAGLAMATCDIIFLNGGKPANFLDLGGGVKESQVYQAFKLLTADPKVEAILVNIFGGIVNCAIIANGITKACRELELKVPLVVRLEGTNVHEAQNILTNSGLPITSAVDLEDAAKKAVASVTKK | soluble |
| MVLRAKLLSWQEGVGSKTFEFDVDVEPRSYVISKVSQLSPIIASEDLTVCEGEVAVVGTRVIEIPENTVVRPVAAISHANGFVADVIECGAPGMVEDEKCINHAVFIPTRSGDVKEGDLLGMLRINFVRTGLLSRVILEHHHHHH | not soluble |
| AEEYGYIVTDQKPLSLAAGVKLLEILAEHVHMSSGSFINISVVGPALTFRIRHNEQNLSLADVTQQAGLVKSELEAQTGLQILQTGVGQRE | soluble |
| MKKIMILVAVISFFSFSDDIKIDRAVKESITKDFDQDGKYSAYEKALRKAQESIYVTLPEHRGYWYSTLDKIKAEEEELLPDETARMRRR | not soluble |
| MGSDKIHHHHHHMKQPLYQQIIDYLQNEIDSGRLPVGAQVPTEKELSAQFNVSRITSKRALTELETQGVIQRHQGKGSFVQAPKHPLHTSLNKVLFLLPFADDLSVGNFYSGLAPTIQAAGLEVFMTSPNFLREKNAADIVNEFAGLVYYAATSNDYLDLLFELALMNFPVVVLDKKIHDLPFATIQSDNFAGGKTATERLIGLGHTKIGYILSGSPALQSVRQRYLGYLQALKEANLAFHTAITETNLLDEHNFKQYFEAHQLTAVVCDNDFSALHCLRNCKNLGIHVPEELSIIGFDDIQAAAFVEPPLTTMAQDFKEMGKLAGEVLLQTMQQDLQIIEDIQVPVTLIERETISTVSK | not soluble |
| ARSSRFTRQADETLTDSEGSGLQFINFDEGSASNPIIARDQEGSGQMYDEEGSGNTLLFDSETPIQVMNVTGTEAEPTDSKVFNQSINITDSDVETLVIKVHLPQKTTSQLLDDLKDDTAQQTNPINTLDTAVSLTSMLNELLGKIQDATTQ | not soluble |
| MSGFDLIIFDCDGVLVDSEIIAAQVESRLLTEAGYPISVEEMGERFAGMTWKNILLQVESEASIPLSASLLDKSEKLLDMRLERDVKIIDGVKFALSRLTTPRCICSNSSSHRLDMMLTKVGLKPYFAPHIYSAKDLGADRVKPKPDIFLHGAAQFGVSPDRVVVVEDSVHGIHGARAAGMRVIGFTGASHTYPSHADRLTDAGAETVISRMQDLPAVIAAMAEWEGAF | soluble |
| MRSQPTVSVIVPARNEAGNIAAAVERLPELGAETELIFVEGHSRDQTWETIEQTVAEYQGPLKLLACRQTGKGKADAVRLGFDKASGDILMILDADLTVQPEDLGHFYRAIASGRGEFINGSRLVYPRSRLAMPGLNTLANRTFALIFSFLLGQPLKDTLCGTKVLWKTDYDRVAAGRKYFGDFDPFGDFDLLFGAAKLGLEIVEVPVRYQERSYGSSNIAHVREGLILARMCLYAAGKLKFPLEHHHHHH | not soluble |
| MMSPRIGLTLQKIVETAAEIADANGVQEVTLASLAQTLGVRSPSLYNHVKGLQDVRKNLGIYGIKKLHNRLEEAAEDKRMDEAIHALGEAYVAFVRKHPGLYEATFLRDEEVRKAGDGIVKLCLQVLQQYGLEGENALHATRGFRSICHGFASIEQQGGFGLPLDLDISLHVLLETFIKGLRE | soluble |
| MGSDKIHHHHHHEEMEKGFDPKRYARELWFKLQDMMNEGLGYDAVEVLNTLDENPELAHQKFAKVVGVSNYRYYIIQGVGEIVEIKDDGILVKVRENRKVPDLFLSNHIFGNGIVNATGIAKMEDFDRIIDFNLTATELNKIVKEEVVNSFLKQLSKGAGSVGSLVRFIAVFTLLKDEEIKYPIEAIPLYLEIQGGF | soluble |
| MAPVLENRRARHDYEILETYEAGIALKGTEVKSLRAGKVDFTGSFARFEDGELYLENLYIAPYEKGSYANVDPRRKRKLLLHKHELRRLLGKVEQKGLTLVPLKIYFNERGYAKVLLGLARGKKAYEKRREDKKEAVRRALEEL | soluble |
| VMPFTEHDKIILRSYEAVVDGIASLIGPFCEIVLHSLEDLNTSAIKIANGENTGRQVGSPITDLALKMLKDIEGSERNFSRSYFTRAKGGVLMKSITVAIRNGENRVIGLLCINVNLDAPFSQVLQSFMPTQEAKEAA | soluble |
| MKVLKPGLLTTVQDIGRTGYQKYGVLASGAMDTVSLRIANLLIGNGENEAGLEITMMGPGPSFHFSKQTLIAVTGADFTLRINDEEAPLWKPVLIKENSTVSFGPCKLGSRAYLAAAGGIEVPAVMESKSTYVRGSIGGLHGRALQKEDELNIGEMSALSQTILSRLSSQLAHTVIGSTDVVSQPWEISVIEDESRHSSAGGISICLLHSRIKNAFSEEAFRVTPQSDRMGYRLKGEPLDLTAPLEMVSAAVSFGAAQMPPAGKPYYPCLQDRQDDWPAIRGIAHIISADLPIVSQIMPGEHVQFEPVSLQEAEALAVEREQHIKELKTRMKMEWLT | not soluble |
| MSLSKHHIIVKSGSTLEQLAKAKTFAFDKTGTLTQNQLVIQDVLPENGFDKETIQSYAASLEQQSDHIIANSLVQGTDKNLIQAVSNLQESTGNGVSGTVDGKNVMVGKLSYVAPDANVNKAKTTAVYVSVDGKYAGCITFKDRLRPETPQTLARLRKQGAKHIMMLTGDNKDVAQAIADVAGVDDVRASLLPAQKIEAIKNVAPENRPVVMTGDGINDAPSLTAADVGIAMGAKGASAASESADAVIMVNDLSKINDAVAIAKHTMKVAEGHHHHHH | soluble |
| MNLPQNIRYRRYQDWTEEEIKSIKTNVALSPWHTTYHIEPKTGLLNDPNGFSYFNGKFNLFYQNWPFGAAHGLKSWIHTESEDLVHFKETGTVLYPDTSHDSHGAYSGSAYEIGDQLFLFYTGNVRDENWVRHPLQIGAFMDKKGNIQKFTDVLIKQPNDVTEHFRDPQIFNYKGQFYAIVGAQSLDKKGFIKLYKAVDNDIKNWQEVGNLDFGGSKSEYMIECPNLVFINEQPVLIYSPQGLSKSELDYHNIYPNTYKVCQSFDTEKPALVDASEIQNLDFGFECYATQAFNAPDGRVYAVSWIGLPDIDYPSDSYDYQGALSLVKELSLKHGKLYQYPVEAVRSLRSEKEAVTYKPETNNTYELELTFDSSSVNELLLFADNKGNGLAITVDTKMGTILIDRSKAGEQYALEFGSQRSCSIQAKETVVNIFVDKSIFEIFINKGEKVFTGRVFPNDKQTGIVIKSGKPSGNYYELKYLEHHHHHH | soluble |
| MGSDKIHHHHHHMKLNLAVFAYHLADYAPRLYDSEVHGLGIGDVRFIDRQETFLSESVYIGAWDKLQALIRPPSYVVCIGRDETTDRWLEKHGVKALILDSEVELNEVFERLQDIFQHYNRLESELLEAVLCKEPLNVLLNICAKFFANPTFITDAALCLVATCDNFAHPETDRAWQETIESGRSSSELLLLMKRKKLTNLLNTSRKAEFVNVGENYSKIICANYFDQEVRIATFTVSEAYTPLSPLQAGLVDHVAKLLTAEVRKQHKASSRYLFAIRSNISNLLHGQKIDGAILKTNFAHIGWTDQEDYRLLKIPLTAAELADGTAGHNRKIYESIFPHYVSLDLNEVLILVIRCARDTEADKRRFAELKKHLKNENAACGVSKTFHDFDMLGEEYKLANAALEIGSWKYPKEALYFYEDMMLEHLFSEGSRIFNLRSLCHDSVLRIAEHDQQNNSSLLQTLKVYLLQEKSLLAASQELHIHRNTLVYRLGKIEQISGLDLNSPLIRLQGILSCLILEYLNGLEEKAPD | not soluble |
